Assay results from article PMC8298264, “Function of cofactor Akirin2 in the regulation of gene expression in model human neutrophil-like HL60 cells” (Bioscience Reports, 2021).

System: human HL60 cells
Assay: SWATH-MS proteomics, differential protein representation, akirin2 KO vs WT HL60 cells
Format: cell-based
Conditions: SWATH-MS, akirin2 KO vs WT HL60 cells; sheet "Under-represented in KO"
How it was run: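 Proteins from WT and akirin2 KO HL60 cells (n=3 biological replicates) were FASP trypsin-digested and analyzed by SWATH-MS DIA with variable windows against an IDA-derived spectral library. Identifications at 1% global FDR; quantities normalized to total area sums of all detected proteins.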

Molecule	Fold Change	Log (Fold Change)
sp¦Q12931¦TRAP1_HUMAN (protein, UniProt Q12931 60-704, looked up) Heat shock protein 75 kDa, …: STQTAEDKEEPLHSIISSTESVQGSTSKHEFQAETKKLLDIVARSLYSEKEVFIRELISNASDALEKLRHKLVSDGQALPEMEIHLQTNAEKGTITIQDTGIGMTQEELVSNLGTIARSGSKAFLDALQNQAEASSKIIGQFGVGFYSAFMVADRVEVYSRSAAPGSLGYQWLSDGSGVFEIAEASGVRTGTKIIIHLKSDCKEFSSEARVRDVVTKYSNFVSFPLYLNGRRMNTLQAIWMMDPKDVREWQHEEFYRYVAQAHDKPRYTLHYKTDAPLNIRSIFYVPDMKPSMFDVSRELGSSVALYSRKVLIQTKATDILPKWLRFIRGVVDSEDIPLNLSRELLQESALIRKLRDVLQQRLIKFFIDQSKKDAEKYAKFFEDYGLFMREGIVTATEQEVKEDIAKLLRYESSALPSGQLTSLSEYASRMRAGTRNIYYLCAPNRHLAEHSPYYEAMKKKDTEVLFCFEQFDELTLLHLREFDKKKLISVETDIVVDHYKEEKFEDRSPAAECLSEKETEELMAWMRNVLGSRVTNVKVTLRLDTHPAMVTVLEMGAARHFLRMQQLAKTQEERAQLLQPTLEINPRHALIKKLNQLRASEPGLAQLLVDQIYENAMIAAGLVDDPRAMVGRLNELLVKALERH	0.7682	-0.1145
sp¦Q9NPJ3¦ACO13_HUMAN (protein, UniProt Q9NPJ3 1-140, looked up) Acyl-coenzyme A thioesterase …: MTSMTQSLREVIKAMTKARNFERVLGKITLVSAAPGKVICEMKVEEEHTNAIGTLHGGLTATLVDNISTMALLCTERGAPGVSVDMNITYMSPAKLGEDIVITAHVLKQGKTLAFTSVDLTNKATGKLIAQGRHTKHLGN	0.7707	-0.1131
sp¦P22087¦FBRL_HUMAN (protein, UniProt P22087 1-321, looked up) rRNA 2'-O-methyltransferase …: MKPGFSPRGGGFGGRGGFGDRGGRGGRGGFGGGRGRGGGFRGRGRGGGGGGGGGGGGGRGGGGFHSGGNRGRGRGGKRGNQSGKNVMVEPHRHEGVFICRGKEDALVTKNLVPGESVYGEKRVSISEGDDKIEYRAWNPFRSKLAAAILGGVDQIHIKPGAKVLYLGAASGTTVSHVSDIVGPDGLVYAVEFSHRSGRDLINLAKKRTNIIPVIEDARHPHKYRMLIAMVDVIFADVAQPDQTRIVALNAHTFLRNGGHFVISIKANCIDSTASAEAVFASEVKKMQQENMKPQEQLTLEPYERDHAVVVGVYRPPPKVKN	0.7688	-0.1142
sp¦O00160¦MYO1F_HUMAN (protein, UniProt O00160 1-1098, looked up) Unconventional myosin-If: MGSKERFHWQSHNVKQSGVDDMVLLPQITEDAIAANLRKRFMDDYIFTYIGSVLISVNPFKQMPYFTDREIDLYQGAAQYENPPHIYALTDNMYRNMLIDCENQCVIISGESGAGKTVAAKYIMGYISKVSGGGEKVQHVKDIILQSNPLLEAFGNAKTVRNNNSSRFGKYFEIQFSRGGEPDGGKISNFLLEKSRVVMQNENERNFHIYYQLLEGASQEQRQNLGLMTPDYYYYLNQSDTYQVDGTDDRSDFGETLSAMQVIGIPPSIQQLVLQLVAGILHLGNISFCEDGNYARVESVDLLAFPAYLLGIDSGRLQEKLTSRKMDSRWGGRSESINVTLNVEQAAYTRDALAKGLYARLFDFLVEAINRAMQKPQEEYSIGVLDIYGFEIFQKNGFEQFCINFVNEKLQQIFIELTLKAEQEEYVQEGIRWTPIQYFNNKVVCDLIENKLSPPGIMSVLDDVCATMHATGGGADQTLLQKLQAAVGTHEHFNSWSAGFVIHHYAGKVSYDVSGFCERNRDVLFSDLIELMQTSEQAFLRMLFPEKLDGDKKGRPSTAGSKIKKQANDLVATLMRCTPHYIRCIKPNETKRPRDWEENRVKHQVEYLGLKENIRVRRAGFAYRRQFAKFLQRYAILTPETWPRWRGDERQGVQHLLRAVNMEPDQYQMGSTKVFVKNPESLFLLEEVRERKFDGFARTIQKAWRRHVAVRKYEEMREEASNILLNKKERRRNSINRNFVGDYLGLEERPELRQFLGKRERVDFADSVTKYDRRFKPIKRDLILTPKCVYVIGREKVKKGPEKGQVCEVLKKKVDIQALRGVSLSTRQDDFFILQEDAADSFLESVFKTEFVSLLCKRFEEATRRPLPLTFSDTLQFRVKKEGWGGGGTRSVTFSRGFGDLAVLKVGGRTLTVSVGDGLPKSSKPTRKGMAKGKPRRSSQAPTRAAPAPPRGMDRNGVPPSARGGPLPLEIMSGGGTHRPPRGPPSTSLGASRRPRARPPSEHNTEFLNVPDQGMAGMQRKRSVGQRPVPGVGRPKPQPRTHGPRCRALYQYVGQDVDELSFNVNEVIEILMEDPSGWWKGRLHGQEGLFPGNYVEKI	0.7701	-0.1134
